Laboratory results taken from paper PMC2752815.

Molecular target: mouse βB1-crystallin (mouse) (UniProt Q9WVJ5)
Test: AUC

Kd: 1.55 µM
stoichiometry N: 2
Substance: mouse βB1-crystallin (from UniProt Q9WVJ5 1-250) (natural protein)
